# B1: Myosin-2 (Saccharomyces cerevisiae), P19524 (parent)
# chain: MSFEVGTRCWYPHKELGWIGAEVIKNEFNDGKYHLELQLEDDEIVSVDTKDLNNDKDQSLPLLRNPPILEATEDLTSLSYLNEPAVLHAIKQRYSQLNIYTYSGIVLIATNPFDRVDQLYTQDMIQAYAGKRRGELEPHLFAIAEEAYRLMKNDKQNQTIVVSGESGAGKTVSAKYIMRYFASVEEENSATVQHQVEMSETEQKILATNPIMEAFGNAKTTRNDNSSRFGKYLEILFDKDTSIIGARIRTYLLERSRLVYQPPIERNYHIFYQLMAGLPAQTKEELHLTDASDYFYMNQGGDTKINGIDDAKEYKITVDALTLVGITKETQHQIFKILAALLHIGNIEIKKTRNDASLSADEPNLKLACELLGIDAYNFAKWVTKKQIITRSEKIVSNLNYSQALVAKDSVAKFIYSALFDWLVENINTVLCNPAVNDQISSFIGVLDIYGFEHFEKNSFEQFCINYANEKLQQEFNQHVFKLEQEEYVKEEIEWSFIEFNDNQPCIDLIENKLGILSLLDEESRLPAGSDESWTQKLYQTLDKSPTNKVFSKPRFGQTKFIVSHYALDVAYDVEGFIEKNRDTVSDGHLEVLKASTNETLINILEGLEKAAKKLEEAKKLELEQAGSKKPGPIRTVNRKPTLGSMFKQSLIELMNTINSTNVHYIRCIKPNADKEAWQFDNLMVLSQLRACGVLETIRISCAGFPSRWTFEEFVLRYYILIPHEQWDLIFKKKETTEEDIISVVKMILDATVKDKSKYQIGNTKIFFKAGMLAYLEKLRSNKMHNSIVMIQKKIRAKYYRKQYLQISQAIKYLQNNIKGFIIRQRVNDEMKVNCATLLQAAYRGHSIRANVFSVLRTITNLQKKIRKELKQRQLKQEHEYNAAVTIQSKVRTFEPRSRFLRTKKDTVVVQSLIRRRAAQRKLKQLKADAKSVNHLKEVSYKLENKVIELTQNLASKVKENKEMTERIKELQVQVEESAKLQETLENMKKEHLIDIDNQKSKDMELQKTIENNLQSTEQTLKDAQLELEDMVKQHDELKEESKKQLEELEQTKKTLVEYQTLNGDLQNEVKSLKEEIARLQTAMSLGTVTTSVLPQTPLKDVMGGGASNFNNMMLENSDLSPNDLNLKSRSTPSSGNNHIDSLSVDRENGVNATQINEELYRLLEDTEILNQEITEGLLKGFEVPDAGVAIQLSKRDVVYPARILIIVLSEMWRFGLTKQSESFLAQVLTTIQKVVTQLKGNDLIPSGVFWLANVRELYSFVVFALNSILTEETFKNGMTDEEYKEYVSLVTELKDDFEALSYNIYNIWLKKLQKQLQKKAINAVVISESLPGFSAGETSGFLNKIFANTEEYTMDDILTFFNSIYWCMKSFHIENEVFHAVVTTLLNYVDAICFNELIMKRNFLSWKRGLQLNYNVTRLEEWCKTHGLTDGTECLQHLIQTAKLLQVRKYTIEDIDILRGICYSLTPAQLQKLISQYQVADYESPIPQEILRYVADIVKKEAALSSSGNDSKGHEHSSSIFITPETGPFTDPFSLIKTRKFDQVEAYIPAWLSLPSTKRIVDLVAQQVVQDGH
# partner: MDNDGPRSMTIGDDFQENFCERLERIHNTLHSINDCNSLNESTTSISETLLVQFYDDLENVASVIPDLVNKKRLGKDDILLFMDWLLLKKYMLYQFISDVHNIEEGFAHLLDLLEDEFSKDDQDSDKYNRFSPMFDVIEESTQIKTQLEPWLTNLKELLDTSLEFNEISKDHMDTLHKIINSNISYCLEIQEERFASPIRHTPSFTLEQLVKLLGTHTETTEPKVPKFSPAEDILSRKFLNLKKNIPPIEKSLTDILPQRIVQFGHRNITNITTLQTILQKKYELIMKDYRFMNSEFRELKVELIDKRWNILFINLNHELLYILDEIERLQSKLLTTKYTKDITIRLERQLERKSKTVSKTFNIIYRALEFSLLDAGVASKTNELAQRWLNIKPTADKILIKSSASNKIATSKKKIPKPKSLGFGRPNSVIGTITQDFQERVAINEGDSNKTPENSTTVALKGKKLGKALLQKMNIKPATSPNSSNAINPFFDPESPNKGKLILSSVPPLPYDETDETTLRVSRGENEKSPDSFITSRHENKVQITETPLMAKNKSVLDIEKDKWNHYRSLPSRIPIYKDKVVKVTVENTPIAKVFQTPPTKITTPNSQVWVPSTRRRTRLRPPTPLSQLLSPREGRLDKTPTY
# Variants of: B1
# Conditions: with kar9_yeast KAR9, P32526
row,effect of a mutation on the interaction,Variant
1,disrupting interaction strength,Y1161F;N1171Y;L1413S;I1453V;I1498M
2,disrupting interaction strength,E1168K;N1254D

# — IntAct's records for PubMed 10984058
